Data taken from PMC6122994 (The Journal of Cell Biology, 2018).

Target: the molecule itself
Test: SEC

B1: MBP-Opi1 (full-length) (natural protein, S. cerevisiae, UniProt P21957 1-404, looked up)
chain: MSENQRLGLSEEEVEAAEVLGVLKQSCRQKSQPSEDVSQADKMPASESSTTPLNILDRVSNKIISNVVTFYDEINTNKRPLKSIGRLLDDDDDEHDDYDYNDDEFFTNKRQKLSRAIAKGKDNLKEYKLNMSIESKKRLVTCLHLLKLANKQLSDKISCLQDLVEKEQVHPLHKQDGNARTTTGAGEDETSSDEDDDDEEFFDASEQVNASEQSIVVKMEVVGTVKKVYSLISKFTANSLPEPARSQVRESLLNLPTNWFDSVHSTSLPHHASFHYANCEEQKVEQQQQQQQQQQQQQLLQQQLLQQQQQKRNKDGDDSASPSSSVTANGKVLILAKESLEMVRNVMGVVDSTLGKAEEWVKQKQEVKEMIRERFLQQQQQYRQQQQKDGNYVKPSQDNVDSKD
- binding result: binds
